According to PMC9440474 (2022):
Bridge positions count the residues as written; N and C are the ends. Ends that are not written are not given here. APBA‑3 = not defined here

What was measured:
S1_SS = target: T1, S1_SS (disulfide 2-9 (inferred)); experiment: fluorescence polarization competition
T1 chain: ACLIPSWGCGGG

S1_APBA-3* = target: T2, S1_APBA-3* (linker (positions not given here) via APBA‑3; reading uncertain); experiment: fluorescence polarization
T2 chain: ACLIPSWGCGGG-{Dap(FAM)}

S1_SS* = target: T3, S1_SS* (disulfide 2-9 (inferred)); experiment: fluorescence polarization
T3 chain: ACLIPSWGCGGG-{Dap(FAM)}

B1: Sortase A (protein)
chain: MKKWTNRLMTIAGVVLILVAAYLFAKPHIDNYLHDKDKDEKIEQYDKNVKEQASKDKKQQAKPQIPKDKSKVAGYIEIPDADIKEPVYPGPATPEQLNRGVSFAEENESLDDQNISIAGHTFIDRPNYQFTNLKAAKKGSMVYFKVGNETRKYKMTSIRDVKPTDVGVLDEQKGKDKQLTLITCDDYNEKTGVWEKRKIFVATEVK
IC50 (S1_SS): 26 µM | Kd (S1_APBA-3*): 64 µM | Kd (S1_SS*): 5.2 µM
